From article PMC10360031

Target: cell-surface vimentin (CSV) on mouse embryonic fibroblasts mEF +/+ (mouse (endogenous in mEF)) (UniProt P20152)
Assay: AFM single-molecule force spectroscopy

Substance | mean rupture force at 5 um/s | binding probability (specific adhesion events) (% of force curves)
Brazil P.1 RBD (from UniProt P0DTC2) (domain or fragment) | 31.3 pN | –
South Africa B.1.135 RBD (from UniProt P0DTC2) (domain or fragment) | 25.8 pN | –
wild-strain SARS-CoV-2 spike protein RBD (from UniProt P0DTC2) (domain or fragment) | – | < 10
